Laboratory results from the DeepSol protein solubility set.

test: soluble on expression in E. coli; label from the status in PepcDB or PDB records

Sequence	soluble on expression in E. coli
MQRNLSHIISQATSAPLLLEPAYARVFFCALGRESGINSLHIPGNNESLDQSDMALVTGDFMATGKPQARFYQVVNGIAVLPVTGTLVHKLGGMRPFSGMTGYDGVTARLQQAVSDPEVKGILLDIDSPGGQAAGAFDCADMIYRMREQKPVWALANETACSAAMLLAAACSHRLVTQTSRMGSIGVVMAHTSYAEKLKQEGIDITLIYSGAHKADLTPSQKLPESVYADYQQRMDEARKMFAEKVARYTGLSVDAVMATEAAVYDGQAIITTGLADGMVNAADAIGVMAEAINSNKTGGTMPELSAADAVTQENQRVMGILGCPEARGHEALAQMLAGQPGMSVAQAKSILAAAAPADTTSTADRILALEEAGGRETLAQTLAAMPEMTVEQARTILAASPIAAATSLHDAVMALDEAKGREELAEKLAVMPGMTTDQARDLLAAAPDKSGNAGLSMNNAFDAFMQSHSPGPISGGKGHSNDTETTLLMSIPGTSATLEHHHHHH	not soluble
MRKSVFVLVFLMASVLFSVELKICYLNEDLLPIVKVTEGRDNPVLEIFEALSSPPEGLKTFVPEGVLRAYFFVGDYLILDFYGEKLKGMNFDSERYFLHQVLYTTFLNVKGVNNVYIIIDGKKRDVLAKHVDIRFSFPREVWEKWPIRLEHHHHHH	not soluble
MLRYFRAFLPKEERFFDLFAQHTHTVVQGAQALQDMLRGGDETLVHCQRVSHFESEADNITREVLTAVRRTFITPFDRVDIKNLITSMDDAIDQMQQTAKAVILFEVREFEPPMREIGTLLVESANLVGRAVPLMQSIGPNLQMLTAMTEEITKLEGRVDDLHDIGLKELFLKHRNANTMDYIVGAEIYDHLEKVADRFDDVANEINSIVIEQVAAALEHHHHHH	soluble
MCPFDVLASVKDDPSLSPQLREKIGGALTRLREICKTADQPSVAKALPRSCAHNYFKEMISGHAPLRFSCHSSESTHTRVKHFDIASSRLPGPIVMSSSKTLMQRTTPALQSPKEIFAELNVIAFQTLRYIDEVEQIEFDVTNVREHDGSIMEDKERLFLSVCCSVFANFSFFASLHINAEKFLHFLRKLFTCYPLDNSYHNATHAADALQMMSLFFREPTVNFLFSDEEIAICFLAVLAVDVAHPGASDTLLVALDHPLASVFGDVAITEHASLLVLTSLLVLEDNFFFSTPDMAVSVDSAHLLKEALYDVVLNAALRSRPSLMSALRDIETSGRITDADAPKLMAALLVMACNSFAFRSQAQCCRMGAWFLSELHREECEMERHGIRVTLPHVAGADCAAVLSDYINVVVKPVTAATLALVPRDLQDRLEWNADLVDAAASTGGRACKVVVENSLVQWMTSSLSVMEILKKVATHASSVDRKASKCAILNASPSRSQGTAPDMMRADSLSSNSSTSGSMSAAKRDEATSNCPQLSFTSEPCSAAGSPTARPGRSEHYFSFLRLYDKCERAGESAKNFVGQLIFLALQLDPRYIAAYARKEYGDDCCGAECAEMGLLISKMEEAPSTAEVIASRPPGGSFSNRVADEIDHTDSFVLLLMDMYCSREAALAEMESVVLVSDKAKTPPPAEPAAPKAVPQFQQNSPIRMPVNTESKNTGPRLRLVP	not soluble
MSTITKEWLLKTIAELEEERDATPGAVNEDAAMALAAMKLALASLEAEPVAWLLSGGGAKNNVSFDSGNAYAAQLREVTPLYTAPPAPVSVPAAMEIDDDFDSAFEHGKAVGWNAYRAAMLQAEPVSNSDELPLDYLQGHKDGLEWAAQLAEANHPQTGDWLYDDQIELARAIRKGPDMPTVQGGNSPVIPDGWVMVPVELTPDMRAAWDSAPYTDDDDNDMQAAYRAMIAVAPQWKVK	not soluble
MTPLERYQADLKRPDFFHDSAQENAVRHLQRLYEDLVAAHDSKPGLFGKLFGKKEPTLVKGLYFWGGVGRGKTYLVDTFFEALPFQDKVRTHFHRFMKRVHEEMKTLKGERNPLTIIAKRFSDEARVICFDEFFVSDITDAMILGTLMEELFKNGVTLVATSNIVPDGLYKDGLQRARFLPAIALIKQNTDIVNVDSGVDYRLRHLEQAELFHFPLNDAAQESMRKSFKALTPDCAETVENDVLMIENREIRALRTCDDVAWFDFRELCDGPRSQNDYIELGKIFHAVLLSGVEQMDVSTDDIARRFINMVDEFYDRNVKLIISAEVELKDLYTGGRLMFEFQRTLSRLLEMQSHEFLSRAHRP	not soluble
MVVVRLPKEIEERLTALARKTGRSKSYYVRQALLEYLDDLEDYYLAVERLEERLPGIPLDEVERRLGLSD	soluble
MVLKGDAKRIVAMSSTHIAMLDAIGEVRCITGVSGIDYISNPDIQARRDSIGDVGYEGNINYELLLSLDPDLVLLYGVNGASAMESKLEELDIPFMYVGDYLEESPLGKAEWMVVLSEVTGKREKGEKAFAAIPVRYNALKKKVADSTLGLEHHHHHH	not soluble
IKATYETFSSPNGHGEGRGYLVMPQKKTIKSPTVLVIHENRGLNPYIKDVARRLAKDGFIAFAPDALYPLGGYPGNDDEGRAMQKEMDRAKIEQDFIAAAKFIKQHEHGNGK	not soluble
MGSDKIHHHHHHMIMRILVVGDFLKTSGMTRYIFNVIGRIHASDFQVDALSISGKDECKGQVKKMGWGFYCVQAANNNLLRHLVQSFIFFKKHAKDYDVIHFNESALWNFLPIIFAHLFGAKRIILNSHNTYFATEGSKKLYVVLEIMHRIGKWLVAHVVAQNIAVSEEAARWMFTRKTINRHEYKIIVNGIELEKFAYNKEQRFKIRKSLKINEDTFLFGNVGIFNARKNQLRLLEIFNELVKRNLDVKLVLVGDGPIKEAIVAKISELRLADKVVMTGLINNTNEYYQAMDGVIMPSLNEGLSTVLLEAQTSGLQFILSEGLPLGNHIDLLVHEVPLSESNRVWADVVEHNMNREKREVFGSIMQKKGFDVELSAKELYQTYLEER	not soluble
MKDVSKNQEENISDTALTNELIHLLGHSRHDWMNKLQLIKGNLSLQKYDRVFEMIEEMVIDAKHESKLSNLKTPHLAFDFLTFNWKTHYMTLEYEVLGEIKDLSAYDQKLAKLMRKLFHLFDQAVSRESENHLTVSLQTDHPDRQLILYLDFHGAFADPSAFDDIRQNGYEDVDIMRFEITSHECLIEIGLD	soluble
MAGDPMNFVTTLTYLLPHRMLSSLARHVAYCQHPLIKQWLIDTVIAKFDVNLSEAAEPDAHAYPSFNAFFTRSLKTGIRLPDPNPDTLLMPADGRISQLGPIREGRIFQAKGQSFTATELLGDTAAAAAFTNGLFATVYLSPRDYHRVHMPCTGQLLKTVHVPGRLFSVGPDAVRQIPRLFARNERLACHFDTAFGPMVLVMVGALLVSGVETVWGGVEIPAYGDRITHKDYQGRNIAIERFAEMARFNYGSTVIVLLPPNVFTLAPHLTAESPVTLGQALAHRLSLNHSTQAPTQEKLEHHHHHH	not soluble
MSLIFILGIFYYLTQPLKSNSVVFIPQGSISQIITYLKQNKYQMSNIDKYILFFLGHPQSGWINIGTKDLNRAEFLHKLTIAKAALQTITLIPGETSVIFLEQAAKQLGLDKDILLKEFQAQAPYDEGVFLPETYKIPKGITENLLIQMLLNHAEISNKKTSEKIFGDYNPKKWHQYIIIASVIQKEAANDNEMPIVASVIYNRLKKGMKLQMDGTLNYGIYSHVKVTPQRIRQDNSFYNTYKFTGLPKEAVCNVSLAAIRAAIFPLKTDYLYFVRDKNTGVHIFSTNIDDHNKAINLQKGKEGHHHHHH	not soluble
GIPMETKGGTVKAASGFNATEDAQVLRKAMKGLGTDEDAIIGVLACRNTAQRQEIRTAYKSTIGRDLLEDLKSELSSNFEQVILGMMTPTVLYDVQELRRAMKGAGTDEGCLIEILASRNPEEIRRINQTYQQQYGRSLEEDICSDTSFMFQRVLVSLTAGGRDEGNYLDDALVKQDAQDLYEAGEKRWGTDEVKFLSILCSRNRNHLLHVFDEYKRISQKDIEQSIKSETSGSFEDALLAIVKCMRNKPAYFAERLYKSMKGLGTDDSTLIRVMVSRAEIDMLDIRANFKRLYGKSLYSFIKGDTSGDYRKVLLILCGGDD	soluble
MENFSLLYSSEEDALLSYADIRNFQLVWNMVDIEQKRSIPVRRVKFLLRLLKGRLEVNDESDGLLFKHMCHEMERLHNGDDVSFHDVLNMLSYRSVDIRKSLQLEELLQREELEYIIEEEVAKHTIRAWLENCLKNIKAKQNNTLGKMSSIGSTFAFPQSQEVLTKGVVLTEASPEEDSLQGDKGSGKKKAQRGNSITEIVAEAQKKSVKRATDKISERRGTLRQMQMGTYDELEEVEEDEDTDGEIRRSSFEYSGVDMIQMSHEKQLEDVKTWWTLCD	not soluble
